The values below come from the supplement of paper PMC12458215.

± gives the uncertainty stated by the source.

The subject of the data set is HEK293T. The experiment in a line: plasma membrane surface immunostaining intensity (anti-HA, deep receptor scanning) (arbitrary fluorescence units); higher = higher plasma membrane expression.

Take “MLMNYSSATEFYLLGFPGSEELHHILFAIFFFFYLVTLMGNTVIIMIVCVDKRLQSPMYFFLGHLSALEILVTTIIVPVMLWGLLLPGMQTIYLSACVVQLFLYLAVGTTEFALLGAMAVDRYVAVCNPLRYNIIMNRHTCNFVVLVSWVFGFLFQIWPVYVMFQLTYCKSNVVNNFFCDRGQLLKLSCNNTLFTEFILFLMAVFVLFGSLIPTIVSNAYIISTILKIPSSSGRRKSFSTCASHFTCVVIGYGSCLFLYVKPKQTQAADYNWVVSLMVSVVTPFLNPFIFTLRNDKVIEALRDGVKRCCQLFRN [OR9A4]”: under “GPCR class: A (Olfactory)”, the “plasma membrane surface immunostaining intensity” value came to 185 ± 75.
For “MVLASGNSSSHPVSFILLGIPGLESFQLWIAFPFCATYAVAVVGNITLLHVIRIDHTLHEPMYLFLAMLAITDLVLSSSTQPKMLAIFWFHAHEIQYHACLIQVFFIHAFSSVESGVLMAMALDCYVAICFPLRHSSILTPSVVIKLGTIVMLRGLLWVSPFCFMVSRMPFCQHQAIPQSYCEHMAVLKLVCADTSISRGNGLFVAFSVAGFDMIVIGMSYVMILRAVLQLPSGEARLKAFSTRSSHICVILALYIPALFSFLTYRFGHDVPRVVHILFANLYLLIPPMLNPIIYGVRTKQIGDRVIQGCCGNIP [OR52R1]”, the “plasma membrane surface immunostaining intensity” value (GPCR class: A (Olfactory)) was determined as 173 ± 48.
With “MTFRDLLSVSFEGPRPDSSAGGSSAGGGGGSAGGAAPSEGPAVGGVPGGAGGGGGVVGAGSGEDNRSSAGEPGSAGAGGDVNGTAAVGGLVVSAQGVGVGVFLAAFILMAVAGNLLVILSVACNRHLQTVTNYFIVNLAVADLLLSATVLPFSATMEVLGFWAFGRAFCDVWAAVDVLCCTASILSLCTISVDRYVGVRHSLKYPAIMTERKAAAILALLWVVALVVSVGPLLGWKEPVPPDERFCGITEEAGYAVFSSVCSFYLPMAVIVVMYCRVYVVARSTTRSLEAGVKRERGKASEVVLRIHCRGAATGADGAHGMRSAKGHTFRSSLSVRLLKFSREKKAAKTLAIVVGVFVLCWFPFFFVLPLGSLFPQLKPSEGVFKVIFWLGYFNSCVNPLIYPCSSREFKRAFLRLLRCQCRRRRRRRPLWRVYGHHWRASTSGLRQDCAPSSGDAPPGAPLALTALPDPDPEPPGTPEMQAPVASRRKPPSAFREWRLLGPFRRPTTQLRAKVSSLSHKIRAGGAQRAEAACAQRSEVEAVSLGVPHEVAEGATCQAYELADYSNLRETDI [ADRA1D]”, where the note is “GPCR class: A”, the “plasma membrane surface immunostaining intensity” value is 125 ± 25.
Turning to “MANITRMANHTGKLDFILMGLFRRSKHPALLSVVIFVVFLKALSGNAVLILLIHCDAHLHSPMYFFISQLSLMDMAYISVTVPKMLLDQVMGVNKVSAPECGMQMFLYLTLAGSEFFLLATMAYDRYVAICHPLRYPVLMNHRVCLFLASGCWFLGSVDGFMLTPITMSFPFCRSWEIHHFFCEVPAVTILSCSDTSLYETLMYLCCVLMLLIPVTIISSSYLLILLTVHRMNSAEGRKKAFATCSSHLTVVILFYGAAVYTYMLPSSYHTPEKDMMVSVFYTILTPVLNPLIYSLRNKDVMGALKKMLTVRFVL [OR2T5]”, where the note is “GPCR class: A (Olfactory)”, the “plasma membrane surface immunostaining intensity” value was found to be 121 ± 14.
In the case of “MERGNQTEVGNFLLLGFAEDSDMQLLLHGLFLSMYLVTIIGNLLIILTISSDSHLHTPMYFFLSNLSFADICFTSTTVPKMLVNIQTQSKMITFAGCLTQIFFFIAFGCLDNLLLTMTAYDRFVAICYPLHYTVIMNPRLCGLLVLGSWCISVMGSLLETLTILRLSFCTNMEIPHFFCDPSEVLKLACSDTFINNIVMYFVTIVLGVFPLCGILFSYSQIFSSVLRVSARGQHKAFSTCGSHLSVVSLFYGTGLGVYLSSAVTPPSRTSLAASVMYTMVTPMLNPFIYSLRNKDMKGSLGRLLLRATSLKEGTIAKLS [OR7C2]”, the “plasma membrane surface immunostaining intensity” value (GPCR class: A (Olfactory)) is 131 ± 26.
On to “MWNATPSEEPGFNLTLADLDWDASPGNDSLGDELLQLFPAPLLAGVTATCVALFVVGIAGNLLTMLVVSRFRELRTTTNLYLSSMAFSDLLIFLCMPLDLVRLWQYRPWNFGDLLCKLFQFVSESCTYATVLTITALSVERYFAICFPLRAKVVVTKGRVKLVIFVIWAVAFCSAGPIFVLVGVEHENGTDPWDTNECRPTEFAVRSGLLTVMVWVSSIFFFLPVFCLTVLYSLIGRKLWRRRRGDAVVGASLRDQNHKQTVKMLAVVVFAFILCWLPFHVGRYLFSKSFEPGSLEIAQISQYCNLVSFVLFYLSAAINPILYNIMSKKYRVAVFRLLGFEPFSQRKLSTLKDESSRAWTESSINT [GHSR]”, for which the “plasma membrane surface immunostaining intensity” value (GPCR class: A) is 1480 ± 520.
Same read-out and setting: in the case of “MSSNSSLLVAVQLCYANVNGSCVKIPFSPGSRVILYIVFGFGAVLAVFGNLLVMISILHFKQLHSPTNFLVASLACADFLVGVTVMPFSMVRTVESCWYFGRSFCTFHTCCDVAFCYSSLFHLCFISIDRYIAVTDPLVYPTKFTVSVSGICISVSWILPLMYSGAVFYTGVYDDGLEELSDALNCIGGCQTVVNQNWVLTDFLSFFIPTFIMIILYGNIFLVARRQAKKIENTGSKTESSSESYKARVARRERKAAKTLGVTVVAFMISWLPYSIDSLIDAFMGFITPACIYEICCWCAYYNSAMNPLIYALFYPWFRKAIKVIVTGQVLKNSSATMNLFSEHI [TAAR6]” it was 175 ± 65.
With “MELRNSTLGSGFILVGILNDSGSPELLYATFTILYMLALTSNGLLLLAITIEARLHMPMYLLLGQLSLMDLLFTSVVTPKALADFLRRENTISFGGCALQMFLALTMGSAEDLLLAFMAYDRYVAICHPLKYMTLMSPRVCWIMVATSWILASLIAIGHTMYTMHLPFCVSWEIRHLLCEIPPLLKLACADTSRYELIIYVTGVTFLLLPISAIVASYTLVLFTVLRMPSNEGRKKALVTCSSHLIVVGMFYGAATFMYVLPSSFHSPKQDNIISVFYTIVTPALNPLIYSLRNKEVMRALRRVLGKYILLAHSTL [OR2AG2]”, the “plasma membrane surface immunostaining intensity” value (GPCR class: A (Olfactory)) was found to be 164 ± 69.
Take “MGDNITSIREFLLLGFPVGPRIQMLLFGLFSLFYVFTLLGNGTILGLISLDSRLHAPMYFFLSHLAVVDIAYACNTVPRMLVNLLHPAKPISFAGRMMQTFLFSTFAVTECLLLVVMSYDLYVAICHPLRYLAIMTWRVCITLAVTSWTTGVLLSLIHLVLLLPLPFCRPQKIYHFFCEILAVLKLACADTHINENMVLAGAISGLVGPLSTIVVSYMCILCAILQIQSREVQRKAFRTCFSHLCVIGLVYGTAIIMYVGPRYGNPKEQKKYLLLFHSLFNPMLNPLICSLRNSEVKNTLKRVLGVERAL [OR2A4]”: the “plasma membrane surface immunostaining intensity” value (GPCR class: A (Olfactory)) is 123 ± 3.7.
For the sequence “MGTCDIVTEANISSGPESNTTGITAFSMPSWQLALWATAYLALVLVAVTGNAIVIWIILAHRRMRTVTNYFIVNLALADLCMAAFNAAFNFVYASHNIWYFGRAFCYFQNLFPITAMFVSIYSMTAIAADRYMAIVHPFQPRLSAPSTKAVIAGIWLVALALASPQCFYSTVTMDQGATKCVVAWPEDSGGKTLLLYHLVVIALIYFLPLAVMFVAYSVIGLTLWRRAVPGHQAHGANLRHLQAMKKFVKTMVLVVLTFAICWLPYHLYFILGSFQEDIYCHKFIQQVYLALFWLAMSSTMYNPIIYCCLNHRFRSGFRLAFRCCPWVTPTKEDKLELTPTTSLSTRVNRCHTKETLFMAGDTAPSEATSGEAGRPQDGSGLWFGYGLLAPTKTHVEI [TACR2]”, where the note is “GPCR class: A”, the “plasma membrane surface immunostaining intensity” value came to 474 ± 41.
Consider “MEETNNSSEKGFLLLGFSDQPQLERFLFAIILYFYVLSLLGNTALILVCCLDSRLHTPMYFFLSNLSCVDICFTTSVAPQLLVTMNKKDKTMSYGGCVAQLYVAMGLGSSECILLAVMAYDRYAAVCRPLRYIAIMHPRFCASLAGGAWLSGLITSLIQCSLTVQLPLCGHRTLDHIFCEVPVLIKLACVDTTFNEAELFVASVVFLIVPVLLILVSYGFITQAVLRIKSAAGRQKAFGTCSSHLVVVIIFYGTIIFMYLQPANRRSKNQGKFVSLFYTIVTPLLNPIIYTLRNKDVKGALRTLILGSAAGQSHKD [OR2G6]”, for which the “plasma membrane surface immunostaining intensity” value (GPCR class: A (Olfactory)) turned out to be 122 ± 18.
On to “MASSWPPLELQSSNQSQLFPQNATACDNAPEAWDLLHRVLPTFIISICFFGLLGNLFVLLVFLLPRRQLNVAEIYLANLAASDLVFVLGLPFWAENIWNQFNWPFGALLCRVINGVIKANLFISIFLVVAISQDRYRVLVHPMASRRQQRRRQARVTCVLIWVVGGLLSIPTFLLRSIQAVPDLNITACILLLPHEAWHFARIVELNILGFLLPLAAIVFFNYHILASLRTREEVSRTRCGGRKDSKTTALILTLVVAFLVCWAPYHFFAFLEFLFQVQAVRGCFWEDFIDLGLQLANFFAFTNSSLNPVIYVFVGRLFRTKVWELYKQCTPKSLAPISSSHRKEIFQLFWRN [BDKRB1]”, for which the “plasma membrane surface immunostaining intensity” value (GPCR class: A) worked out at 976 ± 180.
Same read-out and setting: in the case of “MADAQNISLDSPGSVGAVAVPVVFALIFLLGTVGNGLVLAVLLQPGPSAWQEPGSTTDLFILNLAVADLCFILCCVPFQATIYTLDAWLFGALVCKAVHLLIYLTMYASSFTLAAVSVDRYLAVRHPLRSRALRTPRNARAAVGLVWLLAALFSAPYLSYYGTVRYGALELCVPAWEDARRRALDVATFAAGYLLPVAVVSLAYGRTLRFLWAAVGPAGAAAAEARRRATGRAGRAMLAVAALYALCWGPHHALILCFWYGRFAFSPATYACRLASHCLAYANSCLNPLVYALASRHFRARFRRLWPCGRRRRHRARRALRRVRPASSGPPGCPGDARPSGRLLAGGGQGPEPREGPVHGGEAARGPE [GALR3]” it was 2680 ± 290.
For the sequence “MCSGNQTSQNQTASTDFTLTGLFAESKHAALLYTVTFLLFLMALTGNALLILLIHSEPRLHTPMYFFISQLALMDLMYLCVTVPKMLVGQVTGDDTISPSGCGIQMFFYLTLAGAEVFLLAAMAYDRYAAVCRPLHYPLLMNQRVCQLLVSACWVLGMVDGLLLTPITMSFPFCQSRKILSFFCETPALLKLSCSDVSLYKTLMYLCCILMLLAPIMVISSSYTLILHLIHRMNSAAGHRKALATCSSHMIIVLLLFGASFYTYMLPSSYHTAEQDMMVSAFYTIFTPVLNPLIYSLRNKDVTRALRSMMQSRMNQEK [OR2T3]”, under “GPCR class: A (Olfactory)”, the “plasma membrane surface immunostaining intensity” value was 450 ± 200.
“MEAENLTELSKFLLLGLSDDPELQPVLFGLFLSMYLVTVLGNLLIILAVSSDSHLHTPMYFFLSNLSFVDICFISTTVPKMLVSIQARSKDISYMGCLTQVYFLMMFAGMDTFLLAVMAYDRFVAICHPLHYTVIMNPCLCGLLVLASWFIIFWFSLVHILLMKRLTFSTGTEIPHFFCEPAQVLKVACSNTLLNNIVLYVATALLGVFPVAGILFSYSQIVSSLMGMSSTKGKYKAFSTCGSHLCVVSLFYGTGLGVYLSSAVTHSSQSSSTASVMYAMVTPMLNPFIYSLRNKDVKGALERLLSRADSCP [OR7D4]”: the “plasma membrane surface immunostaining intensity” value (GPCR class: A (Olfactory)) was found to be 157 ± 48.
“MAEMNLTLVTEFLLIAFTEYPEWALPLFLLFLFMYLITVLGNLEMIILILMDHQLHAPMYFLLSHLAFMDVCYSSITVPQMLAVLLEHGAALSYTRCAAQFFLFTFFGSIDCYLLALMAYDRYLAVCQPLLYVTILTQQARLSLVAGAYVAGLISALVRTVSAFTLSFCGTSEIDFIFCDLPPLLKLTCGESYTQEVLIIMFAIFVIPASMVVILVSYLFIIVAIMGIPAGSQAKTFSTCTSHLTAVSLFFGTLIFMYLRGNSDQSSEKNRVVSVLYTEVIPMLNPLIYSLRNKEVKEALRKILNRAKLS [OR9Q1]”: the “plasma membrane surface immunostaining intensity” value (GPCR class: A (Olfactory)) came to 422 ± 160.
Take “MEEAILLNQTSLVTYFRLRGLSVNHKARIAMFSMFLIFYVLTLIGNVLIVITIIYDHRLHTPMYFFLSNLSFIDVCHSTVTVPKMLRDVWSEEKLISFDACVTQMFFLHLFACTEIFLLTVMAYDRYVAICKPLQYMIVMNWKVCVLLAVALWTGGTIHSIALTSLTIKLPYCGPDEIDNFFCDVPQVIKLACIDTHVIEILIVSNSGLISVVCFVVLVVSYAVILVSLRQQISKGKRKALSTCAAHLTVVTLFLGHCIFIYSRPSTSLPEDKVVSVFFTAVTPLLNPIIYTLRNEEMKSALNKLVGRKERKEEK [OR4E1]”: where the note is “GPCR class: A (Olfactory)”, the “plasma membrane surface immunostaining intensity” value was determined as 264 ± 95.
